Legend:
[1] = target: TBC-DEG:αβ-tubulin complex (S. cerevisiae | porcine) (UniProt P40987)
[2] = target: TBC-DEG:αβ-tubulin complex (S. cerevisiae | porcine) (UniProt P40987); remark: listed apart in the source
[3] = target: TBC-DEG:αβ-tubulin complex (S. cerevisiae | porcine) (UniProt P40987); test: SEC-MALS; WTC-03S5 column; purified TBC-DEG (subunits co-expressed and co-purified), αβ-tubulin, TBCC and their complexes; ternary complex with GDP·ALFx (wild type) or GTP (Q73L)
[4] = target: T1, Tubulin cofactor D (TBCD), S. cerevisiae Cin1p (S. cerevisiae), P40987; test: as above; details: remark: other sources report otherwise
T1 chain: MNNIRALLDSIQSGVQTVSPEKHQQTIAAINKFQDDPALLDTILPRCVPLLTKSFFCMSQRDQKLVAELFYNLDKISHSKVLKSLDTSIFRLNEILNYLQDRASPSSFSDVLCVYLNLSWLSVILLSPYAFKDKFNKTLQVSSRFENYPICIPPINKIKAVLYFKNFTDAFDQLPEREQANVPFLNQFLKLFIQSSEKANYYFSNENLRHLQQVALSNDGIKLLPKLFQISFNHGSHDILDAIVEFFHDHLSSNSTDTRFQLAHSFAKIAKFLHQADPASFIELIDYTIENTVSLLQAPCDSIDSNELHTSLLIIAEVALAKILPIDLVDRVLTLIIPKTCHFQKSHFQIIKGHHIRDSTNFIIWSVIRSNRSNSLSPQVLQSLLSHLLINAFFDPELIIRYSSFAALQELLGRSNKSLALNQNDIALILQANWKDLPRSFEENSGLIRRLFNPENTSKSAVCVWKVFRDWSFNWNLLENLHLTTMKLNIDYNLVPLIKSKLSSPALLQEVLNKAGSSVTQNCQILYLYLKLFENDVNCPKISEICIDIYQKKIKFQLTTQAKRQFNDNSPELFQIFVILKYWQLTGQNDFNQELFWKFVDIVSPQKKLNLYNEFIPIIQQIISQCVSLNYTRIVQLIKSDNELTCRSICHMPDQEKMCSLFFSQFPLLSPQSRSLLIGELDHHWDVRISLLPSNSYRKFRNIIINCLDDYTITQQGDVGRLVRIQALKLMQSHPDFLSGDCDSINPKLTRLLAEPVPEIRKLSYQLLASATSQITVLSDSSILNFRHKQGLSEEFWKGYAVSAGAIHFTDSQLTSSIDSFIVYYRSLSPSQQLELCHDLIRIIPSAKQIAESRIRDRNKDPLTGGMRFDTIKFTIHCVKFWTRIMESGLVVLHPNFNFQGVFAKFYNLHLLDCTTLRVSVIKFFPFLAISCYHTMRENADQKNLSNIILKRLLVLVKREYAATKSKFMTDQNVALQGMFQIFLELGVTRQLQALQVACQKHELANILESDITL

B1: Tubulin cofactor C (TBCC), S. cerevisiae Cin2p (natural protein)
chain: MDFTAKIKELERELSETSDYKTLQKKTISLRSELNTLSHSLTSYEKEHFSNDIENVLKSINAKLSESKGKKRLFSFKQKNSSSAVHKNVERTELANAPAYTTTLKKHYVLEKGDSAFENLEFCTVTSTTDYSGNSALSGSLCFRNITKCVINLQRIFFQTGSIFITDCTDSIIFLRSPSDKDFQIRLRDLKNCKILIEKLSPSIDCKQVVIIENCHKCIFNASTRDHLIIQDFSNPFQSEETEDNSAFAFEDFDICNKDTMQLFRAYL
- steady-state GTP hydrolysis kcat (malachite green), 1 μM TBC-DEG:1 μM TBCC:1 μM αβ-tub [1]: 31300 M⁻¹ s⁻¹
- steady-state GTP hydrolysis kcat, equimolar αβ-tubulin and TBCC added to TBC-DEG (number as in the text) [2]: 0.0308 s⁻¹
- stoichiometry N [3]: 1

B2: TBCC C-terminal β-helix domain (residues 100-267) (domain or fragment)
chain: YTTTLKKHYVLEKGDSAFENLEFCTVTSTTDYSGNSALSGSLCFRNITKCVINLQRIFFQTGSIFITDCTDSIIFLRSPSDKDFQIRLRDLKNCKILIEKLSPSIDCKQVVIIENCHKCIFNASTRDHLIIQDFSNPFQSEETEDNSAFAFEDFDICNKDTMQLFRAY
- steady-state GTP hydrolysis kcat, 1 μM TBC-DEG:1 μM TBCC-Cterm:1 μM αβ-tub [1]: 18800 M⁻¹ s⁻¹

B3: Tubulin cofactor E (TBCE), S. cerevisiae Pac2p, P39937 1-518 (natural protein)
chain: MTYEIGDRLKIGGYFCTIKFIGVIKPWPSVKAYGVEWDDHSRGKHSGTIDDIHYFDVQIPNSGSFLKESKIKSPGVRRITFYEALSEKYGGSSNNINDLSIGNKRVEGLGFDELNARNKNYKKLRKIALRDSDVAILFQNQDELNRVIQNCVNVKDLDLSLNLFTNINSLCEFIEPLKNLESLNISQNKLLSGWDNLKEYDLSHIKTLRLSSCGLSYKHIGKLLKSFRTLKMLDLSYNNLTSAGIQNFENEIPCTLEELNISGNNLISFPLFPKNLTLKGLNVSNNQISRAPSIAIYSVESLDITDNKFKERSLIDDLNKTFPSLKNIHLSGNEFNYNGNYINVEEQATFYEVLARFDRVMVLNGSICDVKTRREAEMFFVSKVMNNELSYDTNLPRWSSLIKSYEIDMSKLSFNNERETRQSLVLKIKIRAGKKPSSDLDYWVLPSFTVRYVKSVICRKLNFDILNVKLFHENSEGMINEIKYNFRPISDFNVVNGDIIHVSSPVNNKSIQKVNSPS
- stoichiometry N [4]: 1

Source: article PMC4574351, “Tubulin cofactors and Arl2 are cage-like chaperones that regulate the soluble αβ-tubulin pool for microtubule dynamics” (eLife, 2015)
